B1: FIXa-R318Y/R338E/Y345A/R403E/E410N (protein)
chain 1: YNSGKLEEFVQGNLERECMEEKCSFEEAREVFENTERTTEFWKQYVDGDQCESNPCLNGGSCKDDINSYECWCPFGFEGKNCELDVTCNIKNGRCEQFCKNSADNKVVCSCTEGYRLAENQKSCEPAVPFPCGRVSVSQTSKLTR
chain 2: VVGGEDAKPGQFPWQVVLNGKVDAFCGGSIVNEKWIVTAAHCVETGVKITVVAGEHNIEETEHTEQKRNVIRIIPHHNYNAAINKYNHDIALLELDEPLVLNSYVTPICIADKEYTNIFLKFGSGYVSGWGRVFHKGYSALVLQYLRVPLVDRATCLESTKFTIANNMFCAGFHEGGRDSCQGDSGGPHVTEVEGTSFLTGIISWGEECAMKGKYGIYTKVSEYVNWIKNKTKLT
B2: FIXa R338E/R403E/E410N (protein)
chain 1: B1 chain 1
chain 2: B1 chain 2 with Y138R, A165Y
B3: FIXa Y155F/R338E/R403E/E410N (protein)
chain 1: B1 chain 1
chain 2: B1 chain 2 with Y138R, E158R, A165Y, R178E
B4: FIXa D203N/F205T/E410N (protein)
chain 1: B1 chain 1
chain 2: B1 chain 2 with D23N, F25T, Y138R, E158R, A165Y, E223R
B5: FIXa D203N/F205T/K228N (protein)
chain 1: B1 chain 1
chain 2: B1 chain 2 with D23N, F25T, K48N, Y138R, E158R, A165Y, E223R, N230E
B6: FIXa Y155F/I251S/R318Y/R338E/R403E/E410N (protein)
chain 1: B1 chain 1
chain 2: B1 chain 2 with I71S, A165Y
B7: FIXa Y155F/R318Y/R403E/E410N (protein)
chain 1: B1 chain 1
chain 2: B1 chain 2 with E158R, A165Y
B8: FIXa K228N/R318Y/R338E/R403E/E410N (protein)
chain 1: B1 chain 1
chain 2: B1 chain 2 with K48N, A165Y
B9: FIXa I251S/R318Y/R338E/E410N (protein)
chain 1: B1 chain 1
chain 2: B1 chain 2 with I71S, A165Y, E223R
B10: FIXa Y155F/R318Y/R338E/R403E (protein)
chain 1: B1 chain 1
chain 2: B1 chain 2 with A165Y, N230E
B11: FIXa D203N/F205T/R318Y (protein)
chain 1: B1 chain 1
chain 2: B1 chain 2 with D23N, F25T, E158R, A165Y, E223R, N230E
B12: FIXa-R318Y/R338E/Y345A/N346D/R403E/E410N (protein)
chain 1: B1 chain 1
chain 2: B1 chain 2 with N166D
B13: FIXa Y259F/K265T/Y345T (protein)
chain 1: B1 chain 1
chain 2: B1 chain 2 with Y79F, K85T, Y138R, E158R, A165T, E223R, N230E
B14: FIXa R318Y/R338E/E410N (protein)
chain 1: B1 chain 1
chain 2: B1 chain 2 with A165Y, E223R
B15: FIXa Y155F/K247N/N249S/R318Y/R338E/R403E/E410N (protein)
chain 1: B1 chain 1
chain 2: B1 chain 2 with K67N, N69S, A165Y
B16: FIXa I251S/R318Y/R338E/R403E/E410N (protein)
chain 1: B1 chain 1
chain 2: B1 chain 2 with I71S, A165Y
B17: FIXa K228N/R318Y/E410N (protein)
chain 1: B1 chain 1
chain 2: B1 chain 2 with K48N, E158R, A165Y, E223R
B18: FIXa K247N/N249S/R318Y/R338E/R403E/E410N (protein)
chain 1: B1 chain 1
chain 2: B1 chain 2 with K67N, N69S, A165Y
B19: FIXa D104N/K106S/I251S/R318Y/R338E/E410N (protein)
chain 1: B1 chain 1 with D104N, K106S
chain 2: B1 chain 2 with I71S, A165Y, E223R
B20: FIXa D203N/F205T/R338E (protein)
chain 1: B1 chain 1
chain 2: B1 chain 2 with D23N, F25T, Y138R, A165Y, E223R, N230E
B21: FIXa R318Y/R403E/E410N (protein)
chain 1: B1 chain 1
chain 2: B1 chain 2 with E158R, A165Y
B22: FIXa D104N/K106S/R318Y/R338E/E410N (protein)
chain 1: B1 chain 1 with D104N, K106S
chain 2: B1 chain 2 with A165Y, E223R
B23: FIXa Y155F/R318Y/R338E/E410N (protein)
chain 1: B1 chain 1
chain 2: B1 chain 2 with A165Y, E223R
B24: FIXa D85N/K228N/R318Y/R338E/R403E/E410N (protein)
chain 1: B1 chain 1 with D85N
chain 2: B1 chain 2 with K48N, A165Y
B25: FIXa R318Y/R338E/R403E/E410N (protein)
chain 1: B1 chain 1
chain 2: B1 chain 2 with A165Y
B26: FIXa D203N/F205T/R338A (protein)
chain 1: B1 chain 1
chain 2: B1 chain 2 with D23N, F25T, Y138R, E158A, A165Y, E223R, N230E
B27: FIXa D203N/F205T/R338E/R403E (protein)
chain 1: B1 chain 1
chain 2: B1 chain 2 with D23N, F25T, Y138R, A165Y, N230E
B28: FIXa Y155F/K228N/R318Y/R338E/R403E/E410N (protein)
chain 1: B1 chain 1
chain 2: B1 chain 2 with K48N, A165Y
B29: FIXa K228N/R338E/R403E (protein)
chain 1: B1 chain 1
chain 2: B1 chain 2 with K48N, Y138R, A165Y, N230E
B30: FIXa R318Y/R338E/R403E (protein)
chain 1: B1 chain 1
chain 2: B1 chain 2 with A165Y, N230E

Changes are numbered by the printed parent chain. Numbers in names are those of the source.

Broadly, the KM is the concentration of substrate that gives half-maximal velocity.

In this data set the target is Factor X (FX), P00742.
Factor X (FX), P00742, sequence (P00742 whole entry, looked up): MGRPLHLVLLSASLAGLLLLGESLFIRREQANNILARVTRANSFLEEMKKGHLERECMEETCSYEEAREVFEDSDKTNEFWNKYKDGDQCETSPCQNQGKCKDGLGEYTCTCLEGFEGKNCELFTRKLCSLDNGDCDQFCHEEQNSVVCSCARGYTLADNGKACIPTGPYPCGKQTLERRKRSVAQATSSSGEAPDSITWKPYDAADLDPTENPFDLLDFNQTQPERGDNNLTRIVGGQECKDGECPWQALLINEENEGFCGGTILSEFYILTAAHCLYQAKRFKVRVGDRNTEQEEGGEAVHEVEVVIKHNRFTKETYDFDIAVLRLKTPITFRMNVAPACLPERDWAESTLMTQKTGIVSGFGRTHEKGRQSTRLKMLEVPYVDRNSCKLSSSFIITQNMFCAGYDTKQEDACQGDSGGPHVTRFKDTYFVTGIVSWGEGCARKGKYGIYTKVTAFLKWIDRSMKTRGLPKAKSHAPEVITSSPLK
Take B1: the kcat of FX activation by FIXa (Xase complex with FVIIIa, PC/PS vesicles, Ca2+) stood at 1.4 s⁻¹. Turning to B2, the KM was determined as 0.0367 µM. Still for that read-out and setting: then B3, with 0.0336 µM; and B4, with 0.0455 µM; and B5, with 0.0399 µM. For the protein B6, the KM (FX activation by FIXa in the Xase complex with FVIIIa, PC/PS vesicles and Ca2+) came out at 0.0433 µM.

With B7, the KM was 0.111 µM. As for B8, the KM (FX activation by FIXa in the Xase complex with FVIIIa, PC/PS vesicles and Ca2+) was found to be 0.0361 µM.

With B9, the KM (FX activation by FIXa in the Xase complex with FVIIIa, PC/PS vesicles and Ca2+) was found to be 0.0161 µM. As to B10, the KM stood at 0.0671 µM. Still for that read-out and setting: then B11, with 0.0475 µM.

For B12, the kcat of FX activation by FIXa (Xase complex with FVIIIa, PC/PS vesicles, Ca2+) turned out to be 1.2 s⁻¹.

Regarding B13, the KM (FX activation by FIXa in the Xase complex with FVIIIa, PC/PS vesicles and Ca2+) came out at 0.0309 µM. Turning to B14, the KM was determined as 0.0139 µM. In the case of B15, the KM (FX activation by FIXa in the Xase complex with FVIIIa, PC/PS vesicles and Ca2+) amounted to 0.0363 µM. Still for that read-out and setting: then B16, with 0.0334 µM. On to B17, for which the KM was found to be 0.042 µM.

Consider B18, for which the KM (FX activation by FIXa in the Xase complex with FVIIIa, PC/PS vesicles and Ca2+) was 0.0392 µM. The same measure, in the same setting: then B19, with 0.0243 µM. For the protein B20, the KM was 0.0241 µM. On the same count and under the same terms, then B21, with 0.0942 µM; and B22, with 0.0189 µM; and B23, with 0.016 µM.

Consider B24, for which the KM (FX activation by FIXa in the Xase complex with FVIIIa, PC/PS vesicles and Ca2+) is 0.0393 µM. For the protein B25, the KM is 0.0432 µM. Still for that read-out and setting: then B26, with 0.0385 µM.

For B27, the KM came to 0.0511 µM. Turning to B28, the KM (FX activation by FIXa in the Xase complex with FVIIIa, PC/PS vesicles and Ca2+) was 0.0408 µM. For the protein B29, the KM came out at 0.0592 µM. As to B30, the KM worked out at 0.0597 µM.

The values above are taken from patent publication US20210238260.
